B1: Double-stranded RNA-binding protein Staufen homolog 1, residues 183 to 249; numbered along this chain, O95793 (parent)
chain: KSEISQVFEIALKRNLPVNFEVARESGPPHMKNFVTKVSVGEFVGEGEGKSKKISKKNAAIAVLEEL

± gives the uncertainty stated by the source.

The data set covers variants of B1. As to the kind of experiment: abundance fitness (aPCA) (normalised: wild type 0, dead -1); higher = more abundant; growth selection in yeast, the domain comes from the species named. To be noted: Homo sapiens.
KSEISQVFEIALKRNLPVNFEVARESGPPHMRNFVTKVSVGEFVGEGEGKSKKISKKNAAIAVLEEL: the abundance fitness is -0.052 ± 0.045.

Turning to KSEISQVFEIALKRNLPVNFEVARESGPPHMGNFVTKVSVGEFVGEGEGKSKKISKKNAAIAVLEEL, the abundance fitness was found to be 0.001 ± 0.062.

Turning to KSEISQVFEIALKRNLPVNFEVARESGPPHMMNFVTKVSVGEFVGEGEGKSKKISKKNAAIAVLEEL, the abundance fitness is -0.178 ± 0.061.

Consider KSEISQVFEIALKRNLPVNFEVARESGPPHMYNFVTKVSVGEFVGEGEGKSKKISKKNAAIAVLEEL, for which the abundance fitness was -0.187 ± 0.1. On to KSEISQVFEIALKRNLPVNFEVARESGPPHMENFVTKVSVGEFVGEGEGKSKKISKKNAAIAVLEEL, for which the abundance fitness is -0.077 ± 0.07. In the case of KSEISQVFEIALKRNLPVNFEVARESGPPHMWNFVTKVSVGEFVGEGEGKSKKISKKNAAIAVLEEL, the abundance fitness is -0.483 ± 0.083. Turning to KSEISQVFEIALKRNLPVNFEVARESGPPHMINFVTKVSVGEFVGEGEGKSKKISKKNAAIAVLEEL, the abundance fitness was -0.178 ± 0.1. Turning to KSEISQVFEIALKRNLPVNFEVARESGPPHMLNFVTKVSVGEFVGEGEGKSKKISKKNAAIAVLEEL, the abundance fitness is -0.179 ± 0.044. Then KSEISQVFEIALKRNLPVNFEVARESGPPHMDNFVTKVSVGEFVGEGEGKSKKISKKNAAIAVLEEL, with -0.332 ± 0.11. Turning to KSEISQVFEIALKRNLPVNFEVARESGPPHMHNFVTKVSVGEFVGEGEGKSKKISKKNAAIAVLEEL, the abundance fitness is -0.249 ± 0.088.

Consider KSEISQVFEIALKRNLPVNFEVARESGPPHMFNFVTKVSVGEFVGEGEGKSKKISKKNAAIAVLEEL, for which the abundance fitness is -0.516 ± 0.093. Then KSEISQVFEIALKRNLPVNFEVARESGPPHMSNFVTKVSVGEFVGEGEGKSKKISKKNAAIAVLEEL, with -0.138 ± 0.054; and KSEISQVFEIALKRNLPVNFEVARESGPPNMKNFVTKVSVGEFVGEGEGKSKKISKKNAAIAVLEEL, with 0.078 ± 0.064; and KSEISQVFEIALKRNLPVNFEVARESGPPQMKNFVTKVSVGEFVGEGEGKSKKISKKNAAIAVLEEL, with -0.11 ± 0.055. Next, KSEISQVFEIALKRNLPVNFEVARESGPPAMKNFVTKVSVGEFVGEGEGKSKKISKKNAAIAVLEEL: -0.139 ± 0.043; KSEISQVFEIALKRNLPVNFEVARESGPPEMKNFVTKVSVGEFVGEGEGKSKKISKKNAAIAVLEEL: -0.037 ± 0.058.

For the variant KSEISQVFEIALKRNLPVNFEVARESGPPIMKNFVTKVSVGEFVGEGEGKSKKISKKNAAIAVLEEL, the abundance fitness was -0.288 ± 0.066. Take KSEISQVFEIALKRNLPVNFEVARESGPPFMKNFVTKVSVGEFVGEGEGKSKKISKKNAAIAVLEEL: the abundance fitness is -0.278 ± 0.056. Then KSEISQVFEIALKRNLPVNFEVARESGPPKMKNFVTKVSVGEFVGEGEGKSKKISKKNAAIAVLEEL, with 0.022 ± 0.052; and KSEISQVFEIALKRNLPVNFEVARESGPPWMKNFVTKVSVGEFVGEGEGKSKKISKKNAAIAVLEEL, with -0.365 ± 0.064. Then KSEISQVFEIALKRNLPVNFEVARESGPPRMKNFVTKVSVGEFVGEGEGKSKKISKKNAAIAVLEEL, with -0.077 ± 0.039; and KSEISQVFEIALKRNLPVNFEVARESGPPCMKNFVTKVSVGEFVGEGEGKSKKISKKNAAIAVLEEL, with -0.207 ± 0.066.

As to KSEISQVFEIALKRNLPVNFEVARESGPPVMKNFVTKVSVGEFVGEGEGKSKKISKKNAAIAVLEEL, the abundance fitness is -0.353 ± 0.045. Then KSEISQVFEIALKRNLPVNFEVARESGPPSMKNFVTKVSVGEFVGEGEGKSKKISKKNAAIAVLEEL, with -0.114 ± 0.043; and KSEISQVFEIALKRNLPVNFEVARESGPPMMKNFVTKVSVGEFVGEGEGKSKKISKKNAAIAVLEEL, with -0.115 ± 0.06.

In the case of KSEISQVFEIALKRNLPVNFEVARESGPPYMKNFVTKVSVGEFVGEGEGKSKKISKKNAAIAVLEEL, the abundance fitness was -0.208 ± 0.054. Next, KSEISQVFEIALKRNLPVNFEVARESGPPLMKNFVTKVSVGEFVGEGEGKSKKISKKNAAIAVLEEL: -0.255 ± 0.037; KSEISQVFEIALKRNLPVNFEVARESGPPPMKNFVTKVSVGEFVGEGEGKSKKISKKNAAIAVLEEL: -0.221 ± 0.046; KSEISQVFEIALKRNLPVNFEVARESGPPGMKNFVTKVSVGEFVGEGEGKSKKISKKNAAIAVLEEL: -0.017 ± 0.039. Next, KSEISQVFEIALKRNLPVNFEVARESGPPHMKAFVTKVSVGEFVGEGEGKSKKISKKNAAIAVLEEL: -0.219 ± 0.05; KSEISQVFEIALKRNLPVNFEVARESGPPHMKCFVTKVSVGEFVGEGEGKSKKISKKNAAIAVLEEL: -0.163 ± 0.1; KSEISQVFEIALKRNLPVNFEVARESGPPHMKDFVTKVSVGEFVGEGEGKSKKISKKNAAIAVLEEL: -0.376 ± 0.076. Next, KSEISQVFEIALKRNLPVNFEVARESGYPHMKNFVTKVSVGEFVGEGEGKSKKISKKNAAIAVLEEL: -0.342 ± 0.073; KSEISQVFEIALKRNLPVNFEVARESGTPHMKNFVTKVSVGEFVGEGEGKSKKISKKNAAIAVLEEL: -0.177 ± 0.07. Take KSEISQVFEIALKRNLPVNFEVARESGSPHMKNFVTKVSVGEFVGEGEGKSKKISKKNAAIAVLEEL: the abundance fitness is -0.089 ± 0.045.

Turning to KSEISQVFEIALKRNLPVNFEVARESGNPHMKNFVTKVSVGEFVGEGEGKSKKISKKNAAIAVLEEL, the abundance fitness was -0.152 ± 0.091. Next, KSEISQVFEIALKRNLPVNFEVARESGWPHMKNFVTKVSVGEFVGEGEGKSKKISKKNAAIAVLEEL: -0.316 ± 0.046; KSEISQVFEIALKRNLPVNFEVARESGQPHMKNFVTKVSVGEFVGEGEGKSKKISKKNAAIAVLEEL: -0.202 ± 0.063; KSEISQVFEIALKRNLPVNFEVARESGVPHMKNFVTKVSVGEFVGEGEGKSKKISKKNAAIAVLEEL: -0.278 ± 0.052. Then KSEISQVFEIALKRNLPVNFEVARESGMPHMKNFVTKVSVGEFVGEGEGKSKKISKKNAAIAVLEEL, with -0.303 ± 0.062.

The values are drawn from the Human Domainome abundance scans (Beltran et al. 2025).
